Assay results as given in PMC6366860 (Journal of molecular and cellular cardiology, 2018).

Biological target: F-actin from rabbit skeletal muscle (rabbit, UniProt P68135 1-377)
Test: co-sedimentation

B1: mouse short form C0-C2, C-terminal tagged (mSF1), lacking the 8 amino acid NTE (domain or fragment)
chain: PEPGKKPVSAFNKKPRSAEVTAGSAAVFEAETERSGVMVRWQRDGSDITANDKYGLAAEGKRHTLTVRDASPDDQGSYAVIAGSSKVKFDLKVTEPAPPEKAESEVAPGAPEEVPAPATELEESVSSPEGSVSVTQDGSAAEHQGAPDDPIGLFLMRPQDGEVTVGGSIVFSARVAGASLLKPPVVKWFKGKWVDLSSKVGQHLQLHDSYDRASKVYLFELHITDAQTTSAGGYRCEVSTKDKFDSCNFNLTVHEAIGSGDLDLRSAFRRTSLAGAGRRTSDSHEDAGTPDFSSLLKKRDSFRRDSKLEAPAEEDVWEILRQAPPSEYERIAFQHGVEACHRPLKRLKGMKQDEKKSTAFQKKLEPAYQVNKGHKIRLTVELADPDAEVKWLKNGQEIQMSGSKYIFESVGAKRTLTISQCSLADDAAYQCVVGGEKCSTELFVKEP
Kd: 10.7 µM
